From paper PMC6160062, “Designing antibodies against LRRK2-targeted tau epitopes” (PLoS ONE, 2018)

Molecular target: T1, tau in human tauopathy brain tissue (neurofibrillary tangles) (Homo sapiens, UniProt P10636)
T1 construct: microtubule associated protein tau, human, endogenous in brain; also called NFT tau; tau pathology in AD, FTD and PSP cases; source: endogenous, formalin fixed paraffin embedded human brain tissue (hippocampal region; AD, FTD, PSP cases)
Experiment: immunostaining of cells or tissue; paraffin sections of mouse brain (rTg4510 and nontransgenic; 4.5, 6, 8.5, 10 months) or of human hippocampal tissue; citrate antigen retrieval; MHT2 overnight; ABC/DAB detection

T1 sequence (P10636 whole entry): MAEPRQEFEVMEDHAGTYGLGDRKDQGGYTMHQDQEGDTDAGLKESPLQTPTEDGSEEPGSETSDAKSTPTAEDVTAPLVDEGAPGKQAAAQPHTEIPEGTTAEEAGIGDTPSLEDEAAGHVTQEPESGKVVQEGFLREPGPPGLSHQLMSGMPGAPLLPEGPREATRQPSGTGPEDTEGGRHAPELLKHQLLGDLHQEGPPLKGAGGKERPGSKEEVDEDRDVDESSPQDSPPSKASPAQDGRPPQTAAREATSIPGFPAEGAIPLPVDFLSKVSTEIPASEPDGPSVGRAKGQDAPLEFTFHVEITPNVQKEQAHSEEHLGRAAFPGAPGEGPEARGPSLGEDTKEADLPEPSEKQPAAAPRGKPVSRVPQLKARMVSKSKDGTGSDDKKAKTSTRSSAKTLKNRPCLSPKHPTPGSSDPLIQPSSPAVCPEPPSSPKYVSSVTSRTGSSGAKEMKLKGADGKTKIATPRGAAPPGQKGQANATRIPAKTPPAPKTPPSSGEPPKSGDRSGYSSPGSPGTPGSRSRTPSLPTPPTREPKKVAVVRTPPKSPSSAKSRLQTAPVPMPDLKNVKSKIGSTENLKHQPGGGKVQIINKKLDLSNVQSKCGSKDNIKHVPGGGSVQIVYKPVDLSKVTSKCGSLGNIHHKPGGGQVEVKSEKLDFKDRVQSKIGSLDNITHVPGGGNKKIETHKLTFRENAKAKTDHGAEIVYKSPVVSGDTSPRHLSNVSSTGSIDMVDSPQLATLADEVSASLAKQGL

- binding result: binds
B1: MHT2 monoclonal antibody (antibody, V domains shown)
VH: EVQLQQSGAELVRPGALVKLSCKASGFNIKDYYMHWVKQRPEQGLEWIGWIDPENGNTIYDPKFQGKASITADTSSNTAYLQLSSLTSEDTAVYYCSSYYDYDYWG
VL: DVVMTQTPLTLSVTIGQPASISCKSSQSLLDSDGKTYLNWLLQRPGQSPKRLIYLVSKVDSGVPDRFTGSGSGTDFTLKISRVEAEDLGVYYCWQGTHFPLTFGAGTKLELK
notes: Isotype IgG1; For the BLI experiment only, the antibody was biotinylated with EZ-Link NHS-PEG4 and held on streptavidin sensors; also called antibody MHT2
